The supplement of paper PMC11136658

Test system: peptide library, one residue held at a place counted from the Y acceptor
Assay: relative phosphorylation of the sub-library (ratio to the mean residue at this position); higher = residue favoured
Procedure, shortened: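 Within 384-well plates, purified recombinant kinases phosphorylated biotinylated Tyr-centred peptide library mixtures over 90 min using 50 μM ATP spiked with γ-32P-ATP; each mixture fixed one residue at one position from −5 to +5. Streptavidin membrane capture, rinsing, phosphorimaging and ImageQuant gave the intensities. These were normalized per position to the sum of the 18 randomized residues (16 for the Ser/Thr-free library) and multiplied by that number.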

Chain of FGFR2, construct: aa285-end, human (P21802 285-821, looked up): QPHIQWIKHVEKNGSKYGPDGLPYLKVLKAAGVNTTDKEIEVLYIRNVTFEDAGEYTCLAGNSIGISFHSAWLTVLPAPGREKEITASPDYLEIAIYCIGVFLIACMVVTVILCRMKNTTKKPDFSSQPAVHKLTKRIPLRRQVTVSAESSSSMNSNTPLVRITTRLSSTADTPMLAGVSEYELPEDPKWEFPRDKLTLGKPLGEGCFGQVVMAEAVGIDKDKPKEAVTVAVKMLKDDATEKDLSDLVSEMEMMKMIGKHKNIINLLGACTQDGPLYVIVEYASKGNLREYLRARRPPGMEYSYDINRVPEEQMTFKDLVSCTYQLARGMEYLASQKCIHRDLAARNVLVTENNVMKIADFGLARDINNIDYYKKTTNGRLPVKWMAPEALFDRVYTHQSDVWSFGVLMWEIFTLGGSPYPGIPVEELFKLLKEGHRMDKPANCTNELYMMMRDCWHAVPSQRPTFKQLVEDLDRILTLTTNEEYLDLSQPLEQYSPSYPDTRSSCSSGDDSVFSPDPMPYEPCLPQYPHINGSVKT

FGFR2, construct: aa285-end, human (from UniProt P21802)
relative phosphorylation
Settings	A fixed	D fixed	E fixed	F fixed	G fixed	H fixed	I fixed	K fixed	L fixed	M fixed
at +1	0.967	0.362	0.774	1.69	0.345	1.84	1.33	0.55	0.929	1.06
at +2	0.586	0.991	1.54	1.57	0.353	0.971	0.926	0.524	1.24	1.41
at +3	0.554	0.671	0.515	1.53	0.495	0.988	1.89	0.303	1.96	1.87
at +4	0.848	0.93	1.11	1.06	0.981	1.14	0.883	0.868	0.885	1.01
at +5	1	1.01	0.972	0.992	1.32	0.943	0.836	0.819	0.927	0.979
at -1	0.772	2.28	1.41	0.988	0.506	1.51	1.23	0.5	0.94	0.689
at -2	0.949	1.18	1.42	0.642	1.09	1.28	0.679	1.19	0.78	0.674
at -3	0.935	1.26	1.53	0.852	1.09	1.16	0.697	1.01	0.685	0.774
at -4	1.13	1	1.14	0.949	1.2	1.2	0.773	1.13	0.81	0.812
at -5	0.929	1.09	0.89	0.962	1.27	1.21	0.806	1.33	0.824	0.842
